# Laboratory results published in the supplement of paper PMC9732359.
# ± gives the uncertainty stated by the source.
# Experiment: protein stability index of a GFP-peptide fusion (yeast GPS) (PSI 1-4); higher = more stable; sorted into four equal gates, so the index is relative within each strain
# In short: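 The protein stability index of a peptide was calculated by multiplying its read frequency in each gate by that gate's number and adding the products. The peptides were tiled 17-residue stretches of yeast proteins, fused downstream of GFP on a Cherry-expressing plasmid and carried in yeast as a pooled library. Mid-log cultures in leucine-free medium were sorted into four equal gates by GFP/Cherry ratio, and each gate's plasmids were PCR-amplified and Illumina-sequenced.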
Sequence,protein stability index (pdr5∆),protein stability index (san1∆),protein stability index (ubr1∆),protein stability index (doa10∆)
LLIGCKLDQDDEIYIPI [CSI1],3.12 ± 0.18,3.01 ± 0.084,3.09 ± 0.11,–
KRNGDEVYTLVDSQGLP [ARP7],3.34 ± 0.11,2.98 ± 0.14,3.21 ± 0.097,3.35 ± 0.17
YFWHKIWRKVPGDVLDK [SNU114],1.08 ± 0.064,1.51 ± 0.23,1.22 ± 0.094,1.15 ± 0.095
PLFFVDLKLLFNTEAEQ [RGR1],2.83 ± 0.063,3.19 ± 0.085,3.14 ± 0.057,2.73 ± 0.077
NLTRGINLRKVAEKMNG [RPT6],1.47 ± 0.05,2.31 ± 0.052,1.28 ± 0.044,1.63 ± 0.069
VNEMNDQLAQELKDLET [NNF1],–,3.27 ± 0.12,–,2.9 ± 0.23
LIKERQEMERKLEKKRN [ESC2],–,3.1 ± 0.15,–,–
PVYTAQWSATWIAMRRE [PRP8],1.96 ± 0.063,1.97 ± 0.089,1.9 ± 0.067,1.68 ± 0.079
ENGDEDEDEDEDEDDDD [QCR6],1.74 ± 0.038,1.92 ± 0.05,2.46 ± 0.043,2.01 ± 0.045
LIDFEYVNDVAIYNNPT [RRI2],2.92 ± 0.038,2.67 ± 0.057,2.95 ± 0.049,2.73 ± 0.062
PGSSITETEVEREQPQE [SRB4],3.38 ± 0.12,3.07 ± 0.075,3.35 ± 0.078,3.09 ± 0.093
DIIWLQRDLGLYVVGLF [RRP6],2.22 ± 0.099,1.4 ± 0.1,2.29 ± 0.12,2.27 ± 0.062
TGTGLQDENIGLSMLAK [RPC31],–,3.05 ± 0.13,3.4 ± 0.11,3.12 ± 0.14
PGGAASKSVPTPSLPIA [SNF5],3.07 ± 0.056,2.97 ± 0.036,3.06 ± 0.041,2.9 ± 0.062
GSFNEMKRNCGQIITLF [RMP1],2.91 ± 0.06,2.55 ± 0.062,2.87 ± 0.052,2.74 ± 0.064
LEFARITPMNDDQCMLI [SIN4],2.82 ± 0.089,2.25 ± 0.051,3.31 ± 0.067,2.63 ± 0.074
FNRLKKQAHEKLDASKK [YIL149C/MLP2],3.08 ± 0.099,3.41 ± 0.069,3.14 ± 0.082,2.95 ± 0.086
GAKPEEKKDDNSSKPAF [YJL041W/NSP1],3.38 ± 0.14,2.87 ± 0.082,2.86 ± 0.078,3.29 ± 0.12
DAKKARFWSFMKTQRFV [SIR4],2.88 ± 0.069,2.67 ± 0.069,2.75 ± 0.066,2.6 ± 0.096
EFFSTNWLSIFNDFSNI [REC8],2.91 ± 0.067,2.09 ± 0.098,2.83 ± 0.08,2.83 ± 0.075

Sequence,protein stability index (pdr5∆),protein stability index (san1∆),protein stability index (ubr1∆),protein stability index (doa10∆)
QFTSSLFKALKVILNER [RGR1],2.4 ± 0.069,1.83 ± 0.1,2.42 ± 0.077,2.03 ± 0.11
DLPDTEGLELLGWIHTQ [PRP8],2.79 ± 0.085,3.22 ± 0.051,3.27 ± 0.045,2.75 ± 0.093
PRVSNQSNEDTFLPSYM [RRI2],3.05 ± 0.09,3.14 ± 0.089,3.44 ± 0.067,3.07 ± 0.087
RYVYAHFPINVNIVEKD [RPL9A],2.17 ± 0.049,2.06 ± 0.062,2.19 ± 0.043,2.04 ± 0.048
MANLSQIYTQRAYMRPL [SCL1],1.46 ± 0.074,1.47 ± 0.12,1.54 ± 0.043,1.66 ± 0.06
TTLTIMRILPRETDPLV [RPT4],2.62 ± 0.057,2.73 ± 0.064,2.52 ± 0.039,2.63 ± 0.068
STGPTGAVSLNPSITRL [RRP4],3.05 ± 0.074,2.88 ± 0.042,3.06 ± 0.05,2.92 ± 0.057
DEFPSELSDSDRQIINE [SIR4],3.24 ± 0.16,–,2.89 ± 0.15,3.53 ± 0.27
PDRHVIFLAERRILPKP [RPS7B],2.75 ± 0.14,2.99 ± 0.096,–,2.81 ± 0.18
LYDNFVSKFYDKINQLS [RPN9],2.69 ± 0.077,1.58 ± 0.15,2.43 ± 0.077,2.78 ± 0.098
EEVVSNDEGVWDLVDER [PRP8],3.47 ± 0.057,3.42 ± 0.07,3.49 ± 0.058,3.56 ± 0.073
IIPSRMGEAQTGANFDD [REC8],2.16 ± 0.12,3.04 ± 0.25,2.74 ± 0.1,1.93 ± 0.089
NEEAEARRLKNRAARDR [RPL19A],3.32 ± 0.087,2.89 ± 0.19,3.33 ± 0.062,3.16 ± 0.13
FAKFIHHIHHFEKKELQ [IRR1],2.74 ± 0.064,2.18 ± 0.12,2.13 ± 0.056,1.72 ± 0.048
FKPSQEPEFHALSQSSL [RRI1],2.83 ± 0.043,2.8 ± 0.042,2.42 ± 0.04,2.61 ± 0.05
QNYRLDGRSFDQFRDVE [RRP45],3.26 ± 0.16,3.34 ± 0.13,3.32 ± 0.092,3.42 ± 0.15
EKKILNQFLKIKKKRKE [SMC1],3.06 ± 0.12,2.89 ± 0.1,3.33 ± 0.15,2.98 ± 0.12
LTQGINGKEVPLAKIYL [MED1],2.95 ± 0.17,2.32 ± 0.2,2.21 ± 0.23,2.52 ± 0.26
GDFLDFQVHERLAPLIK [ARP7],3.29 ± 0.13,3.42 ± 0.1,3.47 ± 0.098,3.29 ± 0.16
LVALSNEPAARLGSEAD [FAS2],3.37 ± 0.073,3.45 ± 0.054,3.32 ± 0.092,3.44 ± 0.082
